Laboratory results taken from article PMC7430637.
pKd: −log10 of the molar value.

Experiments:
[1] = target: recombinant hUHRF1 (human) (UniProt Q96T88); experiment: MST; 50 nM 6× His-tagged protein labelled with RED-tris-NTA dye, peptide titrated; 20 mM HEPES–NaOH pH 7.9, 150 mM NaCl, 0.05% Tween-20; room temperature; also with 100-fold molar excess of 16:0 PI5P (Figure 3D)
[2] = target: recombinant mUHRF1 V1 (mouse) (UniProt Q8VDF2); experiment: as above
[3] = target: H3(1-15)K9me3-FAM peptide (C-terminally fluorescein-labelled); experiment: fluorescence polarisation; FAM-labelled H3(1-15) peptide, recombinant protein titrated; RT; as described (ref. 28)
[4] = target: H3(1-15)unmodified-FAM peptide (C-terminally fluorescein-labelled); experiment: as above
[5] = target: mUHRF1 V1 R298* (R298A), full-length (mouse) (UniProt Q8VDF2); experiment: MST; 50 nM His-tag-labelled (RED-tris-NTA) UHRF1 protein, H3 peptide titrated; 20 mM HEPES-NaOH pH 7.9, 150 mM NaCl, 0.05% Tween-20; room temperature; Monolith NT.115
Sequence of mUHRF1 V1 R298* (R298A), full-length (mouse) (Q8VDF2 whole entry R298A): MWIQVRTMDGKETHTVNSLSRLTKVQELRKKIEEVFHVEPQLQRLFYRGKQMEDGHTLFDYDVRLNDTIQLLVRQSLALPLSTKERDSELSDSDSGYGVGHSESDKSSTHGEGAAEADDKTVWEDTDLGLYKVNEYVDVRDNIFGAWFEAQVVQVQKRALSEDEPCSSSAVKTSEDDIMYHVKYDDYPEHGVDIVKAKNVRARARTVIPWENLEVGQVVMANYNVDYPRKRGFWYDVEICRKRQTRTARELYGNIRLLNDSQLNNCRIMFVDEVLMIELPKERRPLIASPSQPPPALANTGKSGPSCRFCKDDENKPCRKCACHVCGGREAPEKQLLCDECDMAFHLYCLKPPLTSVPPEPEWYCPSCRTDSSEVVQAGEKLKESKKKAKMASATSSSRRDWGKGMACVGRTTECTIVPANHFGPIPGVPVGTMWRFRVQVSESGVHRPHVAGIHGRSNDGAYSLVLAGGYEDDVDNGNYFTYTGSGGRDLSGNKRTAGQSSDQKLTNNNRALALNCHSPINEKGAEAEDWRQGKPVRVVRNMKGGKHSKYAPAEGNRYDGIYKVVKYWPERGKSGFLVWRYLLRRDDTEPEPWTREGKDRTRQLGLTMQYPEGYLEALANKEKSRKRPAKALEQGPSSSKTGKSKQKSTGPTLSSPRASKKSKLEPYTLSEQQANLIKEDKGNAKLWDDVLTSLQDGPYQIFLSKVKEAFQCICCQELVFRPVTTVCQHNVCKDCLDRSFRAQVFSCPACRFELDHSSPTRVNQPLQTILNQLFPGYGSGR

[6] = target: mUHRF1 V1 R-S* (R298A/N299A/T300A/G301A/K302A/S303A), full-length (mouse) (UniProt Q8VDF2); experiment: as above
Sequence of mUHRF1 V1 R-S* (R298A/N299A/T300A/G301A/K302A/S303A), full-length (mouse) (Q8VDF2 whole entry R298A/N299A/T300A/G301A/K302A/S303A): as the sequence (Q8VDF2 whole entry R298A) above, with N299A, T300A, G301A, K302A, S303A counted along it

[7] = target: murine UHRF1 splicing variant 1 (mUHRF1 V1), full-length, wild type (mouse) (UniProt Q8VDF2); experiment: as above
Sequence of murine UHRF1 splicing variant 1 (mUHRF1 V1), full-length, wild type (mouse) (Q8VDF2 whole entry, change not shown): as the sequence (Q8VDF2 whole entry R298A) above, with A298R counted along it

[8] = target: murine UHRF1 splicing variant 2 (mUHRF1 V2), full-length, wild type (mouse); experiment: as above
[9] = target: mUHRF1 V1 P-patch/R* (P293A/P294A/P295A/L297A/R298A), full-length (mouse) (UniProt Q8VDF2); experiment: as above
Sequence of mUHRF1 V1 P-patch/R* (P293A/P294A/P295A/L297A/R298A), full-length (mouse) (Q8VDF2 whole entry P293A/P294A/P295A/L297A/R298A): as the sequence (Q8VDF2 whole entry R298A) above, with P293A, P294A, P295A, L297A counted along it

[10] = target: human UHRF1 (hUHRF1), full-length, wild type (human) (UniProt Q96T88); experiment: as above
Sequence of human UHRF1 (hUHRF1), full-length, wild type (human) (Q96T88 whole entry): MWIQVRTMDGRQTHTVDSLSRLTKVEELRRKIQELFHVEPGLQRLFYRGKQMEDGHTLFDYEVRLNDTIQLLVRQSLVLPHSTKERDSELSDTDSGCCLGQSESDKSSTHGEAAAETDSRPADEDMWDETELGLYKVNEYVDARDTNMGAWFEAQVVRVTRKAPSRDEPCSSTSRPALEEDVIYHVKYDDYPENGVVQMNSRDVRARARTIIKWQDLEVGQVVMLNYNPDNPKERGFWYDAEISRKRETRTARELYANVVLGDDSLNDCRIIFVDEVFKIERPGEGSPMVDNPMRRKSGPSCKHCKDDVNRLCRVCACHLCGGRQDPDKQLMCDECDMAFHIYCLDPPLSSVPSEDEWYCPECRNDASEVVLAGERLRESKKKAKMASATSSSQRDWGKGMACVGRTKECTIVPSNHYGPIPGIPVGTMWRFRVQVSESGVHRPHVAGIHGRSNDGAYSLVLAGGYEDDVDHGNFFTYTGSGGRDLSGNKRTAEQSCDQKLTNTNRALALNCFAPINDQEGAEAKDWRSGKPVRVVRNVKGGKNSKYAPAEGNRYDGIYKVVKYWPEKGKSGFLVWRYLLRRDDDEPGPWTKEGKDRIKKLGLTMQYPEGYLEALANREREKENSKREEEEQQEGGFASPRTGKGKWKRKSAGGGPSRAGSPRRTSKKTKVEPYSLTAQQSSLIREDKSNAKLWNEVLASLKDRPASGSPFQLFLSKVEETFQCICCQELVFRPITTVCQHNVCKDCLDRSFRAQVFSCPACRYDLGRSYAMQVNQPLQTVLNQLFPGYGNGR

[11] = target: FAM-H3(1-15)K9me3 peptide (N-terminally fluorescein-labelled); experiment: fluorescence polarisation; FAM-labelled H3(1-15) peptide, recombinant protein titrated; RT; as described (ref. 28)
[12] = target: H3(1–15)K9me3-FAM peptide; experiment: fluorescence polarisation; FAM-labelled H3(1–15) peptide, recombinant protein titrated; room temperature; as described in ref. 28
[13] = target: H3(1–15)unmodified-FAM peptide; experiment: as above
[14] = target: FAM-H3(1–15)K9me3 peptide; experiment: as above

Sequence of recombinant mUHRF1 V1 (mouse) (Q8VDF2 whole entry): as the sequence (Q8VDF2 whole entry R298A) above, with A298R counted along it
Sequence of recombinant hUHRF1 (human) (Q96T88 whole entry): as the sequence (Q96T88 whole entry) above

For H3R2me2sK9me3 peptide (titrated in MST), which fold weaker affinity against the H3K9me3 peptide [1] is on record?
The fold weaker affinity against the H3K9me3 peptide was 10 fold.

What about the fold reduction of binding against the H3K9me3 peptide [2] of the same substance?
The fold reduction of binding against the H3K9me3 peptide was 20 fold.

With “hTTD-PHD module of human UHRF1, wild type (from UniProt Q96T88 1-793) (domain or fragment)” as the substance, how does the pKd [3] read?
Its pKd is 5.59.

And the pKd [4]?
The pKd was 5.62.

What does the source list for “histone H3 N-terminal tail peptide, K9 trimethylated (MST)”?
pKd [5]: 5.17; pKd [6]: 5.21; pKd [7]: 5.85; pKd [8]: 5.35; pKd [9]: 5.20; pKd [10]: 5.82

Which results are given for “histone H3 N-terminal tail peptide, R2 symmetrically dimethylated and K9 trimethylated (MST)”?
pKd [7]: 4.55; pKd [8]: 4.85; pKd [10]: 4.80

With “histone H3 N-terminal tail peptide, unmodified (MST)” as the substance, how does the pKd [5] read?
The pKd was 5.34.

And the pKd [6]?
The pKd was 5.29.

What about the pKd [7] of the same substance?
Its pKd is 5.28.

What about the pKd [8] of the same substance?
The pKd was 5.24.

What about the pKd [9] of the same substance?
The pKd was 5.39.

What about the pKd [10] of the same substance?
Its pKd is 5.60.

With “human UHRF1 (hUHRF1), full-length, wild type (from UniProt Q96T88-1 1-793) (natural protein)” as the substance, how does the pKd [3] read?
Its pKd is 5.11.

And the pKd [4]?
The pKd was 4.82.

With “isolated tandem tudor domain of human UHRF1 (hTTD) (from UniProt Q96T88 1-793) (domain or fragment)” as the substance, how does the pKd [3] read?
The pKd was 5.31.

What about the pKd [11] of the same substance?
Its pKd is 5.20.

What does the source list for “isolated tandem tudor domain of murine UHRF1 (mTTD) (from UniProt Q8VDF2 1-782) (domain or fragment)”?
pKd [3]: 5.57; pKd [11]: 5.47

Which results are given for mTTD-PHD V1 (domain or fragment)?
pKd [12]: 5.31; pKd [13]: 4.84; pKd [14]: < 3.52

How did the pKd [3] turn out when “mTTD-PHD V1 TTD* (Y184A/Y187A, aromatic cage mutant) (from UniProt Q8VDF2-1 122-380) (domain or fragment)” was run?
Its pKd is 4.67.

What about the pKd [4] of the same substance?
The pKd was 4.71.

How did the pKd [14] turn out when mTTD-PHD V2 (domain or fragment) was run?
The pKd was 4.91.

“mTTD-PHD V2 module (mUHRF1 V2 122-372) (domain or fragment)” was tested. Which pKd [3] did it give?
Its pKd is 4.84.

What about the pKd [4] of the same substance?
The pKd was 4.98.

What does the source list for “murine UHRF1 splicing variant 1 (mUHRF1 V1), full-length, wild type (from UniProt Q8VDF2 1-782) (natural protein)”?
pKd [3]: 5.19; pKd [4]: 4.90

“murine UHRF1 splicing variant 2 (mUHRF1 V2), full-length, wild type (natural protein)” was tested. Which pKd [3] did it give?
The pKd was 4.70.

And the pKd [4]?
The pKd was 4.83.

And the pKd [11]?
The pKd was under 4.30.
